Here are results for 41 sequences from the nanobody polyreactivity screen of Harvey et al. (2022).

A short description of this data set: yeast display, Sf9 membrane polyspecificity reagent, FACS + sequencing; frameworks hold sequencing errors. The method, boiled down:
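Nanobodies came from a synthetic yeast display library in Saccharomyces cerevisiae BJ5465, induced with galactose for 36–48 hours and stained for 1 hour at 4 °C with 10% biotinylated, detergent-solubilized Sf9 membrane reagent. Cells were enriched on streptavidin microbeads and then FACS-sorted, with low and high (top ~1%) gates set on anti-HA fluorescence for expression and streptavidin fluorescence for reagent binding. Each polyreactivity label reflects the gate a clone came from. Genes were amplified by colony PCR, sequenced by MiSeq 2 × 250 and filtered by CDR length.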
As to “QVQLVESGGGLVQAVVSLRLSCAASGRIFAYNAMGWYIQATGKERELVAAISSGGNTYYADSVKGRFTISRDNAKNTVYLQMNSLKPEDTAVYYCNAGVGWHRYYSNYDYWGLGTQVTVSS”, the “polyreactivity (PSR sort gate)” value is on record as “low polyreactivity”.

Turning to “QVQLVESGGGLVQDGGSLRLSCAASGRIFGYYAMGGYRQAPGKERELVASINGGGSTNYADSVKGRFTISRDNAKTTVYLQMNSLKPEDTAVYDCAAAQWAYWLLYNYWGHGTQVTVSS”, the “polyreactivity (PSR sort gate)” value is recorded as “low polyreactivity”.

On to “QVQLVESGGGLVQEGGRLRLSCAASGITFRYYAMGWYRQAPGKERELVAAISWGGGSTYYADSVKGRFTISRDNATNTVYLQMNSLKPEDTAVYYCNARGSVRPYGPRATLDYWGQGTQVTVSS”, for which the “polyreactivity (PSR sort gate)” value was “high polyreactivity”.

Turning to “QVQLVESGGGLVQEGGSLRLICAASGSTFYDYAMGWYRQAPGKERELVAAINWSSDTTYYADSVKGRFTISRDNAKNTVYLQMNSMKPEDTAVYYCATDSAYRGYDYWGQGTQVTVSS”, the “polyreactivity (PSR sort gate)” value is “low polyreactivity”.

With “QVQLVESGGGLVQEGGSLRLRCAASGRIFYNYAMGCYRQAPGKERELVAAITGRGGRTYYADSVKGRFTISRDNAKNTVYLQINSLKPEDTAVYYCSVRAGTAGYPKYDYWGPGTQVTVSS”, the “polyreactivity (PSR sort gate)” value was “high polyreactivity”.

“QVQLVESGGGLVQEGGSLRLRCAASGSTFIRYVMGWYRQAPGKERELVAGINSSGGSTNYADSVKGRFTISRDNAKNTVYLQMNSLKPVDTAVYYCNADLRSEYVYWGQGTQVTVSS”: the “polyreactivity (PSR sort gate)” value is “low polyreactivity”.

Consider “QVQLVESGGGLVQEGGSLRLSCAASESNFPRNAMGLYRKEPGKEREIVAAISSAGSTYYADSVKWRFTISRDNAKNTVYLQMNSLKQEDTAVYYCAARLYWPLIVVDLYGYDYWGQGNQVTVSS”, for which the “polyreactivity (PSR sort gate)” value was “low polyreactivity”.

“QVQLVESGGGLVQEGGSLRLSCAASGFTFAYYAMGWYRQAPGKERELVASISYNGGITNYADSVKGRFTISRYNAKNTVYLQMNSLKPEDTAVYYCAAGVFFFTFDYWGQGTQVTVSS”: the “polyreactivity (PSR sort gate)” value was “low polyreactivity”.

For the sequence “QVQLVESGGGLVQEGGSLRLSCAASGFTFRQYAMGRSRQAPGKEMELVAAITKTGGSTYYADSVKGRFTISRDHAKNTVYLQMNSLKPEDPAVYYCNAARETRPRDYYWGQGTQVTVSS”, the “polyreactivity (PSR sort gate)” value is recorded as “low polyreactivity”.

In the case of “QVQLVESGGGLVQEGGSLRLSCAASGFTFTSNAMGWYRQAPGKERELVAAITYSGGITYYADSVKGRFTISRDNAKNTVYLQMNSLKPEDTAVYYCAADSTPYVLSGNYDYWGQGTQVTVSS”, the “polyreactivity (PSR sort gate)” value is listed as “low polyreactivity”.

For “QVQLVESGGGLVQEGGSLRLSCAASGFTVTDYAMGLYRQAPGKERELVAAITSSGGRTYYADSVKGRFTISRDNAKNTVYLQMNSLKPEDTAGYYCTARPHGSWFEYDYWGQGTEVTVSS”, the “polyreactivity (PSR sort gate)” value is on record as “high polyreactivity”.

With “QVQLVESGGGLVQEGGSLRLSCAASGIIFDGNARGWYRQAPGKEKELVASITSDSSTNYADSVKGRFTISRDNAKNTVYLQMNSLKPEDTAVYYCAAAHWIAPRSDYWGQGTQVTLSS”, the “polyreactivity (PSR sort gate)” value is “low polyreactivity”.

Regarding “QVQLVESGGGLVQEGGSLRLSCAASGRTFYINGLGWYRQAPGKEREFVASITWRGGRTYYADSVKGRFTISRDNAKNTVYLQMNSLKPEDTAVYYCNAVGLGGRATSRWYTHYYWGQGTQVTVSS”, the “polyreactivity (PSR sort gate)” value is “high polyreactivity”.

With “QVQLVESGGGLVQEGGSLRLSCAASGRTSNINAMGWYRQAPGKERELVAAINSDGSTYYAYSVKGRFTISRDNAKNTVYLQMNSLKPEDTAVYYCAAVSLFRDSQFDYWGQGTQVTVSS”, the “polyreactivity (PSR sort gate)” value was “low polyreactivity”.

For “QVQLVESGGGLVQEGGSLRLSCAASGSIFDTYAMGWYRQAPGKERELVAAISSGGRTYYADSVKGRFTISRDNAKNTDYFQMNSLKPEYTAVYYCAKERYQQGNYYRYGYWGQGTQVTVSS”, the “polyreactivity (PSR sort gate)” value is on record as “high polyreactivity”.

For the sequence “QVQLVESGGGLVQEGGSLRLSCAASGSIFDVYAMGWYRQAPGKERELVAAISSSGSTYYADSVKGRFTISRDNAKNTVYLQMNSLKPEDTAVYYCAADQADDDDYYYWGQVTQVTVSS”, the “polyreactivity (PSR sort gate)” value is listed as “low polyreactivity”.

With “QVQLVESGGGLVQEGGSLRLSCAASGSIFDVYAMGWYRQAPGKERELVAAISSSGSTYYADSVKGRFTISRDNAKNTVYLQMNSLKPEDTAVYYCASDQADDDDYYYWGQGNQVTVSS”, the “polyreactivity (PSR sort gate)” value is reported as “low polyreactivity”.

Turning to “QVQLVESGGGLVQEGGSLRLSCAASGSIFFPYAMGWYRQAPGKEREFFADITWSGGSTYYADSVKGRFTISRDNAKNTVYLQMNSLKPEDTAVYYCNTDYYLLSVVWFSYTLYEYWGQGTQVTLSS”, the “polyreactivity (PSR sort gate)” value is listed as “high polyreactivity”.

As to “QVQLVESGGGLVQEGGSLRLSCAASGSIFGYYAMGWYRQAPGKERELVAAISRSGGSTYYADSVKGRFTISRDNAKNTVSLQMNSLKPEDTAFYYCAADDYPYGNYYWGKGTQVTVSS”, the “polyreactivity (PSR sort gate)” value is recorded as “high polyreactivity”.

Take “QVQLVESGGGLVQEGGSLRLSCAASGSIFPYYAMGWYRQAPGKERELVAAISSAGSTNYADSVKGRFTISRDNAKNTVYLQMNSLKPEDTAVYYCAADLFYREFDYWGQGTQVTVSS”: the “polyreactivity (PSR sort gate)” value is “low polyreactivity”.

On to “QVQLVESGGGLVQEGGSLRLSCAASGSIFSGYAMGWYRPAPGKERELVAAISSSGGSTYYADSVKGRFTISRDNAKNTVYLQMNSLKPEDTAFYYCAADARWLWVYGAYGGLDYWGQGTQVTLSS”, for which the “polyreactivity (PSR sort gate)” value is given as “low polyreactivity”.

“QVQLVESGGGLVQEGGSLRLSCAASGSILAGYAMGWYRQPPRKERELVDDITSGGDTYYADSVKGRFTISRDNAKNTVYLQMKSLKPEDTAVYYCNAVYEGRYEYAYYYRYDYWGQGTQVTVSS”: the “polyreactivity (PSR sort gate)” value is “high polyreactivity”.

Take “QVQLVESGGGLVQEGGSLRLSCAASGSIYGWDAMGWYRQAPGQEREYVAAIDYSDGGRTYSADSVKGRFTISRDPAKNTVYLQMNSLKPADTAVYYCAAGYVYPHYFIDEYWGQGTQVTVSS”: the “polyreactivity (PSR sort gate)” value is on record as “high polyreactivity”.

As to “QVQLVESGGGLVQEGGSLRLSCAASGSTFERNAMGWYRQAPGKERELVAAISAIGDSTYYADSVKGRFTISRDNAKNTVYLQMKSLNPEDTAVYYCAARYTRYHIGRGYYYWGQGTQVTVSS”, the “polyreactivity (PSR sort gate)” value is recorded as “high polyreactivity”.

Take “QVQLVESGGGLVQEGGSLRLSCAASGSTFKYYAMGWYRQAPGKERELVAAISKGATRTYYADSVKGRFTISRDNAKNTVYLQMNSLKPEDTAVYYCAARGRWNVPARRDYWGQGTQVTVSS”: the “polyreactivity (PSR sort gate)” value is given as “high polyreactivity”.

Regarding “QVQLVESGGGLVQEGGSLRLSCAASGSTFLKYDMGWYRQAPGNERELVAAISWDGGSTYYADSVKGRFTISRDNAKNTVYLQMNSLKPEDTAVYYCNADYDVYLTICYYYGEFDYWGQGTQVTVSS”, the “polyreactivity (PSR sort gate)” value was “low polyreactivity”.

As to “QVQLVESGGGLVQEGGSLRLSCAASGSTFSSYAMGWYRQAPGKERELVAAISWSGGSTYYADSVKGRFTISRDNAKNTVYLQMISLKPEDTAVYYCAAYTYSFRANHDYWGQGTQVTVSS”, the “polyreactivity (PSR sort gate)” value is reported as “high polyreactivity”.

Regarding “QVQLVESGGGLVQEGGSLRLSCAASGSTFSWYTMGWYRQAPGKERELVAAITRGGTTYYADSVKGRFTISRDNAKNTVYLQMISLKPEDTAVYYCAARYSRDVRMGYWGQGTQVTVSS”, the “polyreactivity (PSR sort gate)” value was “high polyreactivity”.

For the sequence “QVQLVESGGGLVQEGGSLRLSCAASGTFYDYVMGLYRPAPGKERELVATISDNDGSTYYADSVKGRFTISRDNAKNTVYLQKNSLKPEDTALYYCNAGRTWPIVADYSWLSYGSWGQGTQVTVSS”, the “polyreactivity (PSR sort gate)” value is listed as “high polyreactivity”.

Consider “QVQLVESGGGLVQEGGSLRLSCAATGSTFDANAMGWYRQAPGKERELVATISDGGSTNYADSVKGRFTISRDNAKNTVYLQMNSLKPEDTAVYYCAAVKLFLGLGYDYWGQGTQVTVSS”, for which the “polyreactivity (PSR sort gate)” value is “low polyreactivity”.

“QVQLVESGGGLVQEGGSLRLSCAPSGFIFRRNAMGAYRQAPGKERELVAAITKSGGSTYYADSVKGRFTISRDNAKNTVYLQMNSLKPEDTAVYYCAAPTWTRSSFDYWGQGTQVTVSS”: the “polyreactivity (PSR sort gate)” value is “high polyreactivity”.

In the case of “QVQLVESGGGLVQEGGSLRLSCSDSGRILRRYTMGWYRQAPGKERELVAAISSGGNTYYADSVKGRFTISRDNAKNTVYLQMNSLKPEDTGVDYCAARVRRYWEYDYWGKGTQVTVSS”, the “polyreactivity (PSR sort gate)” value is given as “low polyreactivity”.

Turning to “QVQLVESGGGLVQEGGSLRLSWAASGSTFARYAMGWYRQAPGKERELVAAISRRGGSTYYADSVKGRFTISRDKAKNTVYVQMHRLKPEDTGVSYCAARYGIISSFEYDYWGQGTQVTVSS”, the “polyreactivity (PSR sort gate)” value is on record as “high polyreactivity”.

“QVQLVESGGGLVQEGGSLSLSCAASGFTFYYYAMGLYRQAPGKERELVASISWRGGSTYYADSVKGRFTISRDNAKNTVYLQMNSLKPEDTAVYYCAAQKRGSPGYRRDYWGQGTQVAVSS”: the “polyreactivity (PSR sort gate)” value was “high polyreactivity”.

Regarding “QVQLVESGGGLVQEGGSLSLSCAASGITLSLYAMGRYRQAPGKERELVAAISRSGGSTYYAYSVKGRFTISRDNAKNTVYLQMNSLKPVDTAFFYCATSWTPNYFVTSDYWGQGTQVTVSS”, the “polyreactivity (PSR sort gate)” value is “high polyreactivity”.

Take “QVQLVESGGGLVQEGGTLRLSCAASGSISIRNAMGWYRQAPGKERELVAAITYSGGSTYYADSVKGRFTISRDTAKNTVYLQMNSLKPEDTAVYYCAKDHYRFRYDYWGQGTQVTVSS”: the “polyreactivity (PSR sort gate)” value is “low polyreactivity”.

In the case of “QVQLVESGGGLVQERGSLRLSCAASGSIFFPYAMGWSRQAPGKDRELVAAITRGGNTKYADSVKGRFTISRDNAKNTVYIQMNSLKPEDTAVFYCAARGASIPYGYWGQGTQVTVSS”, the “polyreactivity (PSR sort gate)” value was “high polyreactivity”.

In the case of “QVQLVESGGGLVQGGGSLRLSCAASGFIFRYYAMGWYRQAPGKERELVAAINGRGDSTYYADSVKGRFTISRDNAKNTVYLQMNSLKPEDTAVYYCAAQGYRYLSRDRYDYWGQGTQVTVSS”, the “polyreactivity (PSR sort gate)” value was “high polyreactivity”.

Take “QVQLVESGGGLVQGGGSLRLSCAASGFIFSRYAMGWYRPAPGKERELVAAISRTGSTNYADSVKGRFTISRDNAKNTVYLQMNSLNPEDTAVYYCNARYITFNGYGYGYWEQGTQVTVSS”: the “polyreactivity (PSR sort gate)” value is listed as “high polyreactivity”.

On to “QVQLVESGGGLVQGGGSLRLSCAASGLIFYHYAMGWYRQAPGKEREFVAAITVSGGSTSYADSVKGRFTISRDNAKNTVDLQMNSLKPEDNAVYYSADRVNYRSPGVSKGRDYWGQGTQVTVSS”, for which the “polyreactivity (PSR sort gate)” value is “low polyreactivity”.

In the case of “QVQLVESGGGLVQGGGSLRLSCAASGSIFSTYVMGWYRQGPGKERELVAAISRRGGSTYYADSVKGRFTISRDNAKNTVYLQMNSLNPADTAVYYCAADGTVGRRDYWGQGTQVTVSS”, the “polyreactivity (PSR sort gate)” value is “high polyreactivity”.
